Measurements taken from the supplement of paper PMC9170038.

Tested on: MS2 coat protein
Assay: apparent KD of MS2 coat protein; designed switch direction (-1 OFF switch, 1 ON switch): -1; higher = weaker reporter binding
Summary of the method: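 The apparent KD reported per design is the median over clusters of curve fits to normalised cluster fluorescence. The RNA switches were transcribed on Illumina chips by stalled E. coli RNA polymerase. SNAP-549-labelled MS2 coat protein was titrated from 0.7 or 1.5 nM, doubling up to 3 µM, in Tris-HCl pH 7.5 buffer containing KCl, MgCl2, BSA, DTT, tRNA and Tween-20, with no input, 200 uM small-molecule ligand, or an oligonucleotide input.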

[1] = Eterna round: R95, input ligand: microRNA oligo, concentration not stated
[2] = input ligand: microRNA oligo, concentration not stated
[3] = Eterna round: R95, input ligand: FMN 200 uM
[4] = Eterna round: R95, input ligand: none

| Sequence | apparent KD of MS2 coat protein (input ligand: FMN 200 uM) [nM] | apparent KD of MS2 coat protein (input ligand: none) [nM] | apparent KD of MS2 coat protein [1] [nM] | apparent KD of MS2 coat protein [2] [nM] | apparent KD of MS2 coat protein [3] [nM] | apparent KD of MS2 coat protein [4] [nM] |
| --- | --- | --- | --- | --- | --- | --- |
| AUAAUGUCAGGAUAUCAGUCGACUAGCUGCGGCUAGUCGACUGAGAAGGGACAUGAGGAUCACCCAUGUAGAUC [E4/18-A3] (Eterna round: R97, puzzle: Exclusion 4) | 244 | 992 | – | – | – | – |
| GUAGAGUCAGGAUAUACGAGAUCGAAAGAUCAAAGAUUCCUACAUGAGGAUCACCCAUGUAGAAGGGACUCUAC [Eli x2 4.123] (Eterna round: R97, puzzle: Exclusion 2) | 16 | 15.6 | – | – | – | – |
| GAUGAGGUAGGAUAUACGAGAAUAUAGGGUAGAUAUAUAACACAUGAGGAUCACCCAUGUAGAAGGACCAGUAG [Mat - Exclusion 2 - Mod of my Tesla design - D70] (puzzle: Exclusion 2) | – | – | 33.6 | – | – | – |
| GGUAAGCUAGGAUAUGCUUUGGGAAAGCAUUCCUUCGAUAAACUUGAGGAUCACCCAAGUAGAAGGAGCUUACG [salish99_ex2_r4_015] (Eterna round: R97, puzzle: Exclusion 2) | 16.7 | 12.8 | – | – | – | – |
| GUCACAUGGACAUAGGAUCACAUGAGGAUCACCCAUGUGACUAACAAGCUUUUUGUUCGUCUUAUGUCCAUGUGAAU [Stov1/15-B1] (Eterna round: R97, puzzle: Sensor, turn-off variant 1) | 13.7 | 12 | – | – | – | – |
| AGCUAGUGCCGAGGAUAUACAUGAGGAUCACCCAUGUAAGCCAGUCGGUUUCUGACUGGCAAGAUGUAGAAGGCGGCGUUGGCA [JL ENG2 1.50] (Eterna round: R96, puzzle: Exclusion NG 2) | 57.1 | 13.5 | – | 9.57 | – | – |
| GUGUACAGAGGAUAUACAUGAGGAUCACCCAUGUGAAUAAGAUAGAAUAAGAUAAAGUGUAGAAGGCUGAGUGU [Excluse me!!! 1 - Jieux - Exclusion 3] (puzzle: Exclusion 3) | – | – | 35.7 | – | 28.8 | 38.4 |
| AGACAAACUGCAGGAUAUUGGCUGACUGCAGGUCAAGAAGGGCAGGACAUGAGGAUCACCCAUGUUCAGUAAACAGGGAGUCCU [Eternabot solution 14] (Eterna round: R96, puzzle: Exclusion NG 1) | 309 | 46.6 | – | 43.7 | – | – |
| AGUACUAACACGUCUGUGUUAGUACAAUAAGCUUGUGAAACAUGAGGAUCACCCAUGUCCUCAUAAGCUCGUCUUAU [salish99_TOv2_r3_079] (puzzle: Sensor v3, turn-off variant 2) | – | – | 749 | – | 17.2 | 16.1 |
| GUUGUGCGAGGAUAUAUGUGAGGUUUGCCUCAACAGGUAAUACAUGAGGAUCACCCAUGUAGAAGGCGCAUGAG [S1-(23.6);S2-(22.1) [87C]] (Eterna round: R96, puzzle: Exclusion 2) | 248 | 63.9 | – | 45 | – | – |
| AAUUUACAUGAGGAUCACCCAUGUGAGGAUAUAUAUAUAUAUUUGUUAUUGUGUGUGUGUAGAAGGCGCGUGAU [JR_Exc1_Sub034] (Eterna round: R97, puzzle: Exclusion 1) | 33.3 | 42.2 | – | – | – | – |
| GUCAGCUCGUCAGGAUAUACAUGAGGAUCACCCAUGUGGUCAAUAGCAGCUUCGGCUGCAUACAUGUAGAAGGGACGAGCUGAC [ENG2/7-B1] (Eterna round: R96, puzzle: Exclusion NG 2) | 18.8 | 78.2 | – | 6.88 | – | – |
| GUUUUGAUAGGAUAUACAUGAGGAUCACCCAUGUCCCACCCGUUACCUCUGACCCUAUGUAGAAGGAUCGUUUA [Exy#15] (Eterna round: R97, puzzle: Exclusion 3) | 27.5 | 37.2 | – | – | – | – |
| GAUUAUGCGAGCUUUAGGGACAUGAGGAUCACCCAUGUUCGUCUUAUUAGUCUAGGUACGCUGACAUACCUAAAUCU [JMF 100] (puzzle: Sensor v3, turn-off variant 1) | – | – | 32.9 | – | 21.8 | 21.6 |
| AAUUCACAAGCGAGAUCCCACAUGAGGAUCACCCAUGUGCUCGUCUUAUAAGGUACUGUGACGAUAGUCACGGUACC [Mat - Sensor, turn-off var - Eli Mod - D87] (Eterna round: R97, puzzle: Sensor, turn-off variant 1) | 16.4 | 16.1 | – | – | – | – |
| CUGGUCCGAGGAUAUAUUAUGUGAAACAUGAGGAUCACCCAUGUAAUAUGAUGGAUGUAAAUAGAAGGCGGACUAG [JL-ex5-3.07] (puzzle: Exclusion 5) | – | – | 37.3 | – | 38.2 | 47.2 |
| AACAAGCAAGGAUAUACCGGAGGUGUGUCCUCACCUAAGGGACUUGAGGAUCACCCAAGUAGAAGGUGCAACAA [Raxela] (Eterna round: R97, puzzle: Exclusion 2) | 41.5 | 141 | – | – | – | – |

| Sequence | apparent KD of MS2 coat protein (input ligand: FMN 200 uM) [nM] | apparent KD of MS2 coat protein (input ligand: none) [nM] | apparent KD of MS2 coat protein [1] [nM] | apparent KD of MS2 coat protein [2] [nM] | apparent KD of MS2 coat protein [3] [nM] | apparent KD of MS2 coat protein [4] [nM] |
| --- | --- | --- | --- | --- | --- | --- |
| CGUGCGUAUGUGAGGAUAUGCUGGUCCUUGGCUCGGCAGAAGGCACAUGAGGAUCACCCAUGUGGUGUCGUACU [salish99_Bmod_ex4_069] (puzzle: Brourd's mod of Exclusion 4) | – | – | 50.2 | – | – | – |
| UCCUUACUGGUCAGGAUAUACAUUCGCUACUCCUUGUAGAAGGGACAUGAGGAUCACCCAUGUACGUUACAUCC [alecazam54b] (Eterna round: R97, puzzle: Brourd's mod of Exclusion 4) | 22.9 | 21.6 | – | – | – | – |
| CGCUAGUCAGGAUAUACGAACAUGUCAAAAGACGUGAAGGGACAUGAGGAUCACCCAUGUAGAAGGGACUAGCG [Mat - Exclusion 2 - JL mod - D4] (Eterna round: R96, puzzle: Exclusion 2) | 256 | 32.2 | – | 21.3 | – | – |
| ACAUGAGGAUCACCCAUGUGACAACAAUGGCUGAUAUAGAAACAGGAUAUUCGUGAAUAUCUAACGAAGAAGGGUUAUGACUGG [Deportation 66 - Jieux - Exclusion NG 3] (Eterna round: R96, puzzle: Exclusion NG 3) | 50.4 | 54.1 | – | 43.1 | – | – |
| UGAUCCAAAGAGGAUAUGUCGGGCCAGGGCCCAACAGAAGGCUUUACAUGAGGAUCACCCAUGUUCGCGACAUG [EX6 A.22] (Eterna round: R97, puzzle: Exclusion 6) | 481 | 558 | – | – | – | – |
| AGCCUAGCAGGAUAUGCUCGGGAUUACAUGAGGAUCACCCAUGUGACUGAUUGUUGUCUUGCAGAAGGGCUAGGGA [JL-EX5-4.04 ViennaUCT mod] (Eterna round: R97, puzzle: Exclusion 5) | 365 | 49 | – | – | – | – |
| GGUCGCUUUGUCAGGAUAUCAGGUUAGAUCUGAUUUGAGAAGGGACAUGAGGAUCACCCAUGUGGCGACCUAAA [Eternabot (L1) Solution 42] (Eterna round: R97, puzzle: Brourd's mod of Exclusion 4) | 26.4 | 31.7 | – | – | – | – |
| AUGUUAUUGGAAGGAUAUGGUUUACUAUCCUAACAUGAGGAUCACCCAUGUAACCUUAUGUGUAUCCAGAAGGUCCAUAACUUA (Eterna round: R96, puzzle: Exclusion NG 2) | 51.9 | 32.2 | – | 22.8 | – | – |
| CCAGCGUAUGUGAGGAUAUGCUGGUCCUUGGAUCAGCAGAAGGCACAUGAGGAUCACCCAUGUGAUGACGUUGG [JL bmx4 3.40] (puzzle: Brourd's mod of Exclusion 4) | – | – | 42.6 | – | – | – |
| ACCUUACAUGAGGAUCACCCAUGUCAGGAUAUCUCGGGCGACCGAGGGCCGGCCGCCCAGAGAAGGGACGAGGA [Aainmaso] (puzzle: Exclusion 1) | – | – | 11.8 | – | – | – |
| AAUAUUAGAGGAUAUACAGUUUAUUACAUGAGGAUCACCCAUGUUCUUCAAUGUAUAUAAGUAGAAGGCUAAGGAA [EX-5 Malc#2] (puzzle: Exclusion 5) | – | – | 42.6 | – | 157 | 43.7 |
| ACCUCACAUGAGGAUCACCCAUGUCAGGAUAUCUAAUGUAGUCGCGUUCCCGACGCUAAGAGAAGGGACGUUGA [EX1 #36] (Eterna round: R97, puzzle: Exclusion 1) | 15.8 | 15 | – | – | – | – |
| AAAAGAAUAGGAUAUACAUGAGGAUCACCCAUGUGAGGGCACGGCCGGCGCGGGCCCGGUAGAAGGAUUCAAAA [Exc;s3-X] (puzzle: Exclusion 3) | – | – | 22.5 | – | 23.1 | 25.6 |
| GUUAAGUGAGGAUAUGGUGAGUAGUGCCUGAGCGCUGCUCACCAGAAGGCACAUGAGGAUCACCCAUGUAUAAC [Mat - Exclusion 4 - Mod of JL - D16] (puzzle: Exclusion 4) | – | – | 19.9 | – | – | – |
| UUUUAAUAUGAAGGAUAUACUUAACAUGAGGAUCACCCAUGUGGUGUUGUGAGUGAGUGAGUUUAGUAGAAGGUCAAGUAUUUU [JMF's solution 47] (Eterna round: R96, puzzle: Exclusion NG 2) | 703 | 428 | – | 559 | – | – |
| UGAGAACAUGAGGAUCACCCAUGUAAGGAUAUGCGAAGAGUUCGGAGAGGUUGAGGAGGCAGAAGGUACGGGAG [JR_Exclu1_Sub044] (puzzle: Exclusion 1) | – | – | 32.5 | – | 37.5 | 49.8 |
| AAAUUUGGAGGAUAUUCAUUGGGAAACAUGAGGAUCACCCAUGUGAUAUAAGGGAAAUCCGGAGAAGGCUAAAUUU [-17.1, -14.1 kcal, 37% A] (Eterna round: R97, puzzle: Exclusion 5) | 30.7 | 28.2 | – | – | – | – |
